Assay results published in PMC6368601.

Target: taxol-stabilized microtubules polymerized from bovine brain tubulin dimers (bovine) (UniProt Q6B856)
Test: co-sedimentation; 100 nM ISB (WT, MTBM or Δ20) with various concentrations of taxol-stabilized microtubules; BRB80, 1 mM DTT, 50 mM NaCl, 20 uM paclitaxel; 15 min at room temperature; 50% glycerol cushion, 279,000 x g; blot with anti-Borealin; apparent Kd from a one-site specific binding fit of three experiments

Substance | Kd
INCENP^1-58-Survivin-Borealin complex (ISB^WT), centromere-targeting region of human CPC (from UniProt Q9NQS7 1-58; O15392 1-142; Q53HL2 1-280) | 164 nM
ISB^Δ20: INCENP^1-58-Survivin-Borealin lacking the N-terminal 20 amino acids of Borealin (from UniProt Q9NQS7 1-58; O15392 1-142; Q53HL2 21-280) (complex) | 750 nM
